T1: DFNB31_3, Q9P202
T1 sequence (Q9P202 811-907, limits assumed, looked up): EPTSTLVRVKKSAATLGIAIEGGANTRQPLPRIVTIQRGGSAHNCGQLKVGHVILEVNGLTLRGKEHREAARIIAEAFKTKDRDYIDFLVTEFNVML

T2: PTPN13_1, Q12923
T2 sequence (Q12923 1088-1188, limits assumed, looked up): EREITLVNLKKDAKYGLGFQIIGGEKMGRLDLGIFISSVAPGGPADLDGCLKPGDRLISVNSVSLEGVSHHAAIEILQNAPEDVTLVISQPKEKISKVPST

T3: LRRC7, Q96NW7
T3 sequence (Q96NW7 1440-1537, limits assumed, looked up): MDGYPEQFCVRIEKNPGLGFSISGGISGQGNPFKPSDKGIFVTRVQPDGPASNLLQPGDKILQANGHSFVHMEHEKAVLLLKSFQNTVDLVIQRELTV

T4: ARHGEF11, O15085
T4 sequence (O15085 42-136, limits assumed, looked up): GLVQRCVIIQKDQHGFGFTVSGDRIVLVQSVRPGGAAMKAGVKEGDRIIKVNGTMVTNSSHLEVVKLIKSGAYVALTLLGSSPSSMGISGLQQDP

T5: TIAM2, Q8IVF5
T5 sequence (Q8IVF5 885-986, limits assumed, looked up): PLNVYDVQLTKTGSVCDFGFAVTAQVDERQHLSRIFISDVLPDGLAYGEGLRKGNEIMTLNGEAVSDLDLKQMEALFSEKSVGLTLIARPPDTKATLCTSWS

T6: APBA2_1, Q99767
T6 sequence (Q99767 563-664, limits assumed, looked up): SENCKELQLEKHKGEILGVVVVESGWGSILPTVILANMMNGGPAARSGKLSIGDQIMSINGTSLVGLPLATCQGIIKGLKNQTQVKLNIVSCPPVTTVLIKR

T7: DLG3_1, Q92796
T7 sequence (Q92796 125-227, limits assumed, looked up): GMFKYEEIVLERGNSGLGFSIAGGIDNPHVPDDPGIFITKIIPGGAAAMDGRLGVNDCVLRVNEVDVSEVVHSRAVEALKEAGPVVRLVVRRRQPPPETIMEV

T8: MPDZ_12, O75970
T8 sequence (O75970 1857-1958, limits assumed, looked up): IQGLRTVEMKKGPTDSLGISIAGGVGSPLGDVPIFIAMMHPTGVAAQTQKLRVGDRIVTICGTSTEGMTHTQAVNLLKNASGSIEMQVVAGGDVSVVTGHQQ

T9: NHERF3_4, Q5T2W1
T9 sequence (Q5T2W1 373-468, limits assumed, looked up): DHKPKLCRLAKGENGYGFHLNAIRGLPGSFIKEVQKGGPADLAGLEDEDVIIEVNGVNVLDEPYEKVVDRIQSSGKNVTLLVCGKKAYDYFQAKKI

T10: PDZRN3_1, Q9UPQ7
T10 sequence (Q9UPQ7 244-349, limits assumed, looked up): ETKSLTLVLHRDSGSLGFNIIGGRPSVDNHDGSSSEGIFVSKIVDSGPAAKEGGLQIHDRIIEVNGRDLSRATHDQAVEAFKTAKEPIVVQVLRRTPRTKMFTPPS

T11: LIN7C, Q9NUP9
T11 sequence (Q9NUP9 88-185, limits assumed, looked up): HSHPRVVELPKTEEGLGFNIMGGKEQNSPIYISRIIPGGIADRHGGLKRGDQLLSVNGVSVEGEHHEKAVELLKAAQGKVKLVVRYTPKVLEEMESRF

T12: DFNB31_1, Q9P202
T12 sequence (Q9P202 135-233, limits assumed, looked up): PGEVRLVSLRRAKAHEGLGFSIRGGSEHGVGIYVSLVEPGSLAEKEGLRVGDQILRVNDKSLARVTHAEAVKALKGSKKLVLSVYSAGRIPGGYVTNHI


Tests used:
Assay in all cases: holdup assay
Set-up in all cases: key: below the threshold = too weak to quantify, mostly under pKd 3.1 to 4
Conditions in all cases: plain residues with an end cap or a label only (N-terminal biotin on a linker: ado-ado)
HTRA2, O43464 = target: HTRA2, O43464
Sequence of HTRA2, O43464 (O43464 355-458): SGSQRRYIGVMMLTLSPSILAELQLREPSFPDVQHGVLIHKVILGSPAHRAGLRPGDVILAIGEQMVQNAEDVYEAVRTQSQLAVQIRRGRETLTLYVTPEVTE

DFNB31_3, Q9P202 = target: T1, DFNB31_3, Q9P202
PTPN13_1, Q12923 = target: T2, PTPN13_1, Q12923
NHERF4_2, Q86UT5 = target: NHERF4_2, Q86UT5
Sequence of NHERF4_2, Q86UT5 (Q86UT5 220-308): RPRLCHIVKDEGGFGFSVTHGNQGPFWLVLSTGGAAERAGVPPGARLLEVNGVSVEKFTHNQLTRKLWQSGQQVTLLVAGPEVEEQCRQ

LRRC7, Q96NW7 = target: T3, LRRC7, Q96NW7
ARHGEF11, O15085 = target: T4, ARHGEF11, O15085
TIAM2, Q8IVF5 = target: T5, TIAM2, Q8IVF5
APBA2_1, Q99767 = target: T6, APBA2_1, Q99767
DLG3_1, Q92796 = target: T7, DLG3_1, Q92796
NHERF4_4, Q86UT5 = target: NHERF4_4, Q86UT5
Sequence of NHERF4_4, Q86UT5 (Q86UT5 464-550): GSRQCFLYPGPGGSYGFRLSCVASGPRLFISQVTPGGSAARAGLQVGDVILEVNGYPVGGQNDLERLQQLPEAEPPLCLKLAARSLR

MPDZ_12, O75970 = target: T8, MPDZ_12, O75970
NHERF3_4, Q5T2W1 = target: T9, NHERF3_4, Q5T2W1
PDZRN3_1, Q9UPQ7 = target: T10, PDZRN3_1, Q9UPQ7
NHERF2_2, Q15599 = target: NHERF2_2, Q15599
Sequence of NHERF2_2, Q15599 (Q15599 142-238): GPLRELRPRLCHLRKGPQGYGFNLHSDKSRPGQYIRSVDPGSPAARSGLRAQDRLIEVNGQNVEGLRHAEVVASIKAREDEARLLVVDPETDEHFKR

MAST2, Q6P0Q8 = target: MAST2, Q6P0Q8
Sequence of MAST2, Q6P0Q8 (Q6P0Q8 1099-1202): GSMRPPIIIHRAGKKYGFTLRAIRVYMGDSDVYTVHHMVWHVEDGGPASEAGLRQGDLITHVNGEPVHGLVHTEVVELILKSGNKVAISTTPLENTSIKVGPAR

DLG1_3, Q12959 = target: DLG1_3, Q12959
Sequence of DLG1_3, Q12959 (Q12959 457-571): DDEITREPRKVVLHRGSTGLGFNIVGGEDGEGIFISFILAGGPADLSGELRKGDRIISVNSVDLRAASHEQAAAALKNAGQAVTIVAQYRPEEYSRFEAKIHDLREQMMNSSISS

LIN7C, Q9NUP9 = target: T11, LIN7C, Q9NUP9
LNX1_3, Q8TBB1 = target: LNX1_3, Q8TBB1
Sequence of LNX1_3, Q8TBB1 (Q8TBB1 500-596): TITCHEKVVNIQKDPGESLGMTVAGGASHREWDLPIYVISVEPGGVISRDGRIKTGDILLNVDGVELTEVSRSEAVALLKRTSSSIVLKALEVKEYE

MAGI2_6, Q86UL8 = target: MAGI2_6, Q86UL8
Sequence of MAGI2_6, Q86UL8 (Q86UL8 1141-1229): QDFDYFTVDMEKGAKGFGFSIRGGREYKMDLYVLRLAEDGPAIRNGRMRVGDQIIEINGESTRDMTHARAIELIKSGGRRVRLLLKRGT

DLG1_2, Q12959 = target: DLG1_2, Q12959
Sequence of DLG1_2, Q12959 (Q12959 314-412): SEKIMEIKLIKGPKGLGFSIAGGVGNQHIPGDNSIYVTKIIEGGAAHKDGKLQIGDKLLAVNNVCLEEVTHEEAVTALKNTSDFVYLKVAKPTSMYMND

Inadl_9, Q8NI35 = target: Inadl_9, Q8NI35
Sequence of Inadl_9, Q8NI35 (Q8NI35 1530-1615): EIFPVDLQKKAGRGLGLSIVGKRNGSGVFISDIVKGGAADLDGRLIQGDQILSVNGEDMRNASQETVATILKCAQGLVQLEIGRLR

MAGI1_1, Q96QZ7 = target: MAGI1_1, Q96QZ7
Sequence of MAGI1_1, Q96QZ7 (Q96QZ7 1-106): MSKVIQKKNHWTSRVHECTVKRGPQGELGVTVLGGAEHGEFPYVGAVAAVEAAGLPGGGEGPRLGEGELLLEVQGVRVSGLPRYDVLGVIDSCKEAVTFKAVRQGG

AHNAK1, Q09666 = target: AHNAK1, Q09666
Sequence of AHNAK1, Q09666 (Q09666 4-100): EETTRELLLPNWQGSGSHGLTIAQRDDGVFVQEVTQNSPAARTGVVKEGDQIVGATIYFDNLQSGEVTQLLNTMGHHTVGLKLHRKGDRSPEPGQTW

TJP1_3, Q07157 = target: TJP1_3, Q07157
Sequence of TJP1_3, Q07157 (Q07157 416-512): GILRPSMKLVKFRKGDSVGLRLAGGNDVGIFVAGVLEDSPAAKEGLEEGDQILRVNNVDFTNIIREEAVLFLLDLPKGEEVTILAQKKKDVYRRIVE

DFNB31_1, Q9P202 = target: T12, DFNB31_1, Q9P202
Inadl_1, Q8NI35 = target: Inadl_1, Q8NI35
Sequence of Inadl_1, Q8NI35 (Q8NI35 113-229): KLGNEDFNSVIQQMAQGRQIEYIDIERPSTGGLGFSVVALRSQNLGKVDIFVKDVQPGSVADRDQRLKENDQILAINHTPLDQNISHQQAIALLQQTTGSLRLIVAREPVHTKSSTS

| Binder | pKd (HTRA2, O43464) | pKd (DFNB31_3, Q9P202) | pKd (PTPN13_1, Q12923) | pKd (NHERF4_2, Q86UT5) | pKd (LRRC7, Q96NW7) | pKd (ARHGEF11, O15085) | pKd (TIAM2, Q8IVF5) | pKd (APBA2_1, Q99767) | pKd (DLG3_1, Q92796) | pKd (NHERF4_4, Q86UT5) | pKd (MPDZ_12, O75970) | pKd (NHERF3_4, Q5T2W1) | pKd (PDZRN3_1, Q9UPQ7) | pKd (NHERF2_2, Q15599) | pKd (MAST2, Q6P0Q8) | pKd (DLG1_3, Q12959) | pKd (LIN7C, Q9NUP9) | pKd (LNX1_3, Q8TBB1) | pKd (MAGI2_6, Q86UL8) | pKd (DLG1_2, Q12959) | other results |
| --- | --- | --- | --- | --- | --- | --- | --- | --- | --- | --- | --- | --- | --- | --- | --- | --- | --- | --- | --- | --- | --- |
| PELESKESVL [SLC1A4, P43007] | below the threshold | below the threshold | below the threshold | below the threshold | 3.53 | 3.94 | below the threshold | below the threshold | below the threshold | below the threshold | below the threshold | below the threshold | 4.46 | 4.4 | 5.21 | below the threshold | 4.28 | below the threshold | 3.93 | 4.04 | pKd (Inadl_9, Q8NI35): below the threshold; pKd (MAGI1_1, Q96QZ7): below the threshold; pKd (AHNAK1, Q09666): below the threshold; pKd (TJP1_3, Q07157): below the threshold; pKd (DFNB31_1, Q9P202): 3.6; pKd (Inadl_1, Q8NI35): below the threshold |
| EEDTAEKDEL [HSPA5, P11021] | below the threshold | 4.19 | below the threshold | below the threshold | 3.47 | 3.56 | below the threshold | below the threshold | below the threshold | below the threshold | 3.52 | below the threshold | below the threshold | 3.7 | 3.7 | 3.77 | below the threshold | below the threshold | below the threshold | below the threshold | pKd (Inadl_9, Q8NI35): below the threshold; pKd (MAGI1_1, Q96QZ7): 3.51; pKd (AHNAK1, Q09666): below the threshold; pKd (TJP1_3, Q07157): below the threshold; pKd (DFNB31_1, Q9P202): below the threshold; pKd (Inadl_1, Q8NI35): below the threshold |

More lines, main results first:

| pKd (HTRA2, O43464) | pKd (DFNB31_3, Q9P202) | pKd (PTPN13_1, Q12923) | pKd (NHERF4_2, Q86UT5) | pKd (LRRC7, Q96NW7) | pKd (ARHGEF11, O15085) | pKd (TIAM2, Q8IVF5) | pKd (APBA2_1, Q99767) | pKd (DLG3_1, Q92796) | pKd (NHERF4_4, Q86UT5) | pKd (MPDZ_12, O75970) | pKd (NHERF3_4, Q5T2W1) | pKd (PDZRN3_1, Q9UPQ7) | pKd (NHERF2_2, Q15599) | pKd (MAST2, Q6P0Q8) | pKd (DLG1_3, Q12959) | pKd (LIN7C, Q9NUP9) | pKd (LNX1_3, Q8TBB1) | pKd (MAGI2_6, Q86UL8) | pKd (DLG1_2, Q12959) | Binder | other results |
| --- | --- | --- | --- | --- | --- | --- | --- | --- | --- | --- | --- | --- | --- | --- | --- | --- | --- | --- | --- | --- | --- |
| below the threshold | below the threshold | below the threshold | below the threshold | below the threshold | below the threshold | 4.11 | below the threshold | below the threshold | below the threshold | below the threshold | below the threshold | below the threshold | below the threshold | below the threshold | below the threshold | below the threshold | below the threshold | below the threshold | below the threshold | LSEFKAMDSF [CTNNA2, P26232] | pKd (Inadl_9, Q8NI35): below the threshold; pKd (MAGI1_1, Q96QZ7): below the threshold; pKd (AHNAK1, Q09666): below the threshold; pKd (TJP1_3, Q07157): below the threshold; pKd (DFNB31_1, Q9P202): below the threshold; pKd (Inadl_1, Q8NI35): below the threshold |
| below the threshold | below the threshold | below the threshold | below the threshold | below the threshold | 4.67 | below the threshold | below the threshold | 3.8 | below the threshold | below the threshold | below the threshold | below the threshold | below the threshold | 5.21 | below the threshold | below the threshold | below the threshold | 4.26 | 4.99 | PLDSQQHTEV [FAT1, Q14517] | pKd (Inadl_9, Q8NI35): 3.69; pKd (MAGI1_1, Q96QZ7): below the threshold; pKd (AHNAK1, Q09666): below the threshold; pKd (TJP1_3, Q07157): below the threshold; pKd (DFNB31_1, Q9P202): 3.85; pKd (Inadl_1, Q8NI35): below the threshold |
| below the threshold | below the threshold | below the threshold | below the threshold | 3.88 | 5.19 | below the threshold | below the threshold | 4.17 | below the threshold | 4.41 | 4.37 | 4.03 | below the threshold | 5.4 | 4.06 | 3.63 | 3.64 | 4.67 | 4.85 | RQSILFSTEV [BCR, P11274] | pKd (Inadl_9, Q8NI35): 4.09; pKd (MAGI1_1, Q96QZ7): below the threshold; pKd (AHNAK1, Q09666): below the threshold; pKd (TJP1_3, Q07157): below the threshold; pKd (DFNB31_1, Q9P202): 4.27; pKd (Inadl_1, Q8NI35): 3.88 |

Source: publication PMC9482650, “Quantitative fragmentomics allow affinity mapping of interactomes” (Nature Communications, 2022)
